Reference: US20240270846A1 (published 2024)

Target: T1, CD3 epsilon homodimer protein (UniProt P07766 23-126)
T1 construct: Construct of the homodimer is not described; also called CD3 (CD3 epsilon)
Assay: SPR Biacore T200, CD3e homodimer on chip, antibody analyte;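 note: CD3 epsilon homodimer amine-coupled on CM4 sensor chip, antibodies injected as analyte at 25 °C in HBS-EP+, ratio ≥0.8 taken as binding retained versus unaltered parent antibody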

T1 sequence (P07766 23-126): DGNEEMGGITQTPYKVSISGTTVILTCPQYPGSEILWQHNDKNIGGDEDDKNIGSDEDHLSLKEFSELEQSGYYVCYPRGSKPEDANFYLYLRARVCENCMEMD

Binder	ratio of amounts bound (altered form/GLS3000)
GLS3000 V94T one-arm antibody (antibody, human IgG1, kappa, L234A L235A, N297A, name in Kabat numbering) light: DIVMTQSPLSLPVTPGEPASISCRSSQSLVHSNRNTYLHWYQQKPGQAPRLLIYKVSNRFSGVPDRFSGSGSGTDFTLKISRVEAEDVGVYYCGQGTQTPYTFGQGTKLEIKRTVAAPSVFIFPPSDEQLKSGTASVVCLLNNFYPREAKVQWKVDNALQSGNSQESVTEQDSKDSTYSLSSTLTLSKADYEKHKVYACEVTHQGLSSPVTKSFNRGEC heavy: QVQLVESGGGVVQPGRSLRLSCAASGFTFSNAWMHWVRQAPGKGLEWVAQIKAKSNNYATYYAESVKGRFTISRDDSKNSLYLQMNSLKTEDTAVYYCRYVHYGAYYGVDAWGQGTTVTVSSASTKGPSVFPLAPSSKSTSGGTAALGCLVKDYFPEPVTVSWNSGALTSGVHTFPAVLQSSGLYSLSSVVTVPSSSLGTQTYICNVNHKPSNTKVDKKVEPKSCDKTHTCPPCPAPEAAGGPSVFLFPPKPKDTLMISRTPEVTCVVVDVSHEDPEVKFNWYVDGVEVHNAKTKPREEQYASTYRVVSVLTVLHQDWLNGKEYKCKVSNKALPAPIEKTISKAKGQPREPQVYTLPPSRCELTKNQVSLSCAVKGFYPSDIAVEWESNGQPENNYKTTPPVLDSDGSFFLVSKLTVDKSRWQQGNVFSCSVMHEALHNHYTQKSLSLSPDYKDDDDK EPKSSDKTHTCPPCPAPELLGGPSVFLFPPKPKDTLMISRTPEVTCVVVDVSHEDPEVKFNWYVDGVEVHNAKTKPREEQYNSTYRVVSVLTVLHQDWLNGKEYKCKVSNKALPAPIEKTISKAKGQPREPQVCTLPPSRDELTKNQVSLWCLVKGFYPSDIAVEWESNGQPENNYKTTPPVLDSDGSFFLYSKLTVDKSRWQQGNVFSCSVMHEALHNRYTQKSLSLSP	0.93
GLS3000 Y32P one-arm antibody (antibody, human IgG1, kappa, L234A L235A, N297A, name in Kabat numbering) light: DIVMTQSPLSLPVTPGEPASISCRSSQSLVHSNRNTPLHWYQQKPGQAPRLLIYKVSNRFSGVPDRFSGSGSGTDFTLKISRVEAEDVGVYYCGQGTQVPYTFGQGTKLEIKRTVAAPSVFIFPPSDEQLKSGTASVVCLLNNFYPREAKVQWKVDNALQSGNSQESVTEQDSKDSTYSLSSTLTLSKADYEKHKVYACEVTHQGLSSPVTKSFNRGEC heavy: QVQLVESGGGVVQPGRSLRLSCAASGFTFSNAWMHWVRQAPGKGLEWVAQIKAKSNNYATYYAESVKGRFTISRDDSKNSLYLQMNSLKTEDTAVYYCRYVHYGAYYGVDAWGQGTTVTVSSASTKGPSVFPLAPSSKSTSGGTAALGCLVKDYFPEPVTVSWNSGALTSGVHTFPAVLQSSGLYSLSSVVTVPSSSLGTQTYICNVNHKPSNTKVDKKVEPKSCDKTHTCPPCPAPEAAGGPSVFLFPPKPKDTLMISRTPEVTCVVVDVSHEDPEVKFNWYVDGVEVHNAKTKPREEQYASTYRVVSVLTVLHQDWLNGKEYKCKVSNKALPAPIEKTISKAKGQPREPQVYTLPPSRCELTKNQVSLSCAVKGFYPSDIAVEWESNGQPENNYKTTPPVLDSDGSFFLVSKLTVDKSRWQQGNVFSCSVMHEALHNHYTQKSLSLSPDYKDDDDK EPKSSDKTHTCPPCPAPELLGGPSVFLFPPKPKDTLMISRTPEVTCVVVDVSHEDPEVKFNWYVDGVEVHNAKTKPREEQYNSTYRVVSVLTVLHQDWLNGKEYKCKVSNKALPAPIEKTISKAKGQPREPQVCTLPPSRDELTKNQVSLWCLVKGFYPSDIAVEWESNGQPENNYKTTPPVLDSDGSFFLYSKLTVDKSRWQQGNVFSCSVMHEALHNRYTQKSLSLSP	0.24
GLS3000 V94W one-arm antibody (antibody, human IgG1, kappa, L234A L235A, N297A, name in Kabat numbering) light: DIVMTQSPLSLPVTPGEPASISCRSSQSLVHSNRNTYLHWYQQKPGQAPRLLIYKVSNRFSGVPDRFSGSGSGTDFTLKISRVEAEDVGVYYCGQGTQWPYTFGQGTKLEIKRTVAAPSVFIFPPSDEQLKSGTASVVCLLNNFYPREAKVQWKVDNALQSGNSQESVTEQDSKDSTYSLSSTLTLSKADYEKHKVYACEVTHQGLSSPVTKSFNRGEC heavy: QVQLVESGGGVVQPGRSLRLSCAASGFTFSNAWMHWVRQAPGKGLEWVAQIKAKSNNYATYYAESVKGRFTISRDDSKNSLYLQMNSLKTEDTAVYYCRYVHYGAYYGVDAWGQGTTVTVSSASTKGPSVFPLAPSSKSTSGGTAALGCLVKDYFPEPVTVSWNSGALTSGVHTFPAVLQSSGLYSLSSVVTVPSSSLGTQTYICNVNHKPSNTKVDKKVEPKSCDKTHTCPPCPAPEAAGGPSVFLFPPKPKDTLMISRTPEVTCVVVDVSHEDPEVKFNWYVDGVEVHNAKTKPREEQYASTYRVVSVLTVLHQDWLNGKEYKCKVSNKALPAPIEKTISKAKGQPREPQVYTLPPSRCELTKNQVSLSCAVKGFYPSDIAVEWESNGQPENNYKTTPPVLDSDGSFFLVSKLTVDKSRWQQGNVFSCSVMHEALHNHYTQKSLSLSPDYKDDDDK EPKSSDKTHTCPPCPAPELLGGPSVFLFPPKPKDTLMISRTPEVTCVVVDVSHEDPEVKFNWYVDGVEVHNAKTKPREEQYNSTYRVVSVLTVLHQDWLNGKEYKCKVSNKALPAPIEKTISKAKGQPREPQVCTLPPSRDELTKNQVSLWCLVKGFYPSDIAVEWESNGQPENNYKTTPPVLDSDGSFFLYSKLTVDKSRWQQGNVFSCSVMHEALHNRYTQKSLSLSP	0.58
GLS3000 Y32F one-arm antibody (antibody, human IgG1, kappa, L234A L235A, N297A, name in Kabat numbering) light: DIVMTQSPLSLPVTPGEPASISCRSSQSLVHSNRNTFLHWYQQKPGQAPRLLIYKVSNRFSGVPDRFSGSGSGTDFTLKISRVEAEDVGVYYCGQGTQVPYTFGQGTKLEIKRTVAAPSVFIFPPSDEQLKSGTASVVCLLNNFYPREAKVQWKVDNALQSGNSQESVTEQDSKDSTYSLSSTLTLSKADYEKHKVYACEVTHQGLSSPVTKSFNRGEC heavy: QVQLVESGGGVVQPGRSLRLSCAASGFTFSNAWMHWVRQAPGKGLEWVAQIKAKSNNYATYYAESVKGRFTISRDDSKNSLYLQMNSLKTEDTAVYYCRYVHYGAYYGVDAWGQGTTVTVSSASTKGPSVFPLAPSSKSTSGGTAALGCLVKDYFPEPVTVSWNSGALTSGVHTFPAVLQSSGLYSLSSVVTVPSSSLGTQTYICNVNHKPSNTKVDKKVEPKSCDKTHTCPPCPAPEAAGGPSVFLFPPKPKDTLMISRTPEVTCVVVDVSHEDPEVKFNWYVDGVEVHNAKTKPREEQYASTYRVVSVLTVLHQDWLNGKEYKCKVSNKALPAPIEKTISKAKGQPREPQVYTLPPSRCELTKNQVSLSCAVKGFYPSDIAVEWESNGQPENNYKTTPPVLDSDGSFFLVSKLTVDKSRWQQGNVFSCSVMHEALHNHYTQKSLSLSPDYKDDDDK EPKSSDKTHTCPPCPAPELLGGPSVFLFPPKPKDTLMISRTPEVTCVVVDVSHEDPEVKFNWYVDGVEVHNAKTKPREEQYNSTYRVVSVLTVLHQDWLNGKEYKCKVSNKALPAPIEKTISKAKGQPREPQVCTLPPSRDELTKNQVSLWCLVKGFYPSDIAVEWESNGQPENNYKTTPPVLDSDGSFFLYSKLTVDKSRWQQGNVFSCSVMHEALHNRYTQKSLSLSP	0.29

Second part, the binder after the results:

ratio of amounts bound (altered form/GLS3000)	Binder
0.17	GLS3000 Y96D one-arm antibody (antibody, human IgG1, kappa, L234A L235A, N297A, name in Kabat numbering) light: DIVMTQSPLSLPVTPGEPASISCRSSQSLVHSNRNTYLHWYQQKPGQAPRLLIYKVSNRFSGVPDRFSGSGSGTDFTLKISRVEAEDVGVYYCGQGTQVPDTFGQGTKLEIKRTVAAPSVFIFPPSDEQLKSGTASVVCLLNNFYPREAKVQWKVDNALQSGNSQESVTEQDSKDSTYSLSSTLTLSKADYEKHKVYACEVTHQGLSSPVTKSFNRGEC heavy: QVQLVESGGGVVQPGRSLRLSCAASGFTFSNAWMHWVRQAPGKGLEWVAQIKAKSNNYATYYAESVKGRFTISRDDSKNSLYLQMNSLKTEDTAVYYCRYVHYGAYYGVDAWGQGTTVTVSSASTKGPSVFPLAPSSKSTSGGTAALGCLVKDYFPEPVTVSWNSGALTSGVHTFPAVLQSSGLYSLSSVVTVPSSSLGTQTYICNVNHKPSNTKVDKKVEPKSCDKTHTCPPCPAPEAAGGPSVFLFPPKPKDTLMISRTPEVTCVVVDVSHEDPEVKFNWYVDGVEVHNAKTKPREEQYASTYRVVSVLTVLHQDWLNGKEYKCKVSNKALPAPIEKTISKAKGQPREPQVYTLPPSRCELTKNQVSLSCAVKGFYPSDIAVEWESNGQPENNYKTTPPVLDSDGSFFLVSKLTVDKSRWQQGNVFSCSVMHEALHNHYTQKSLSLSPDYKDDDDK EPKSSDKTHTCPPCPAPELLGGPSVFLFPPKPKDTLMISRTPEVTCVVVDVSHEDPEVKFNWYVDGVEVHNAKTKPREEQYNSTYRVVSVLTVLHQDWLNGKEYKCKVSNKALPAPIEKTISKAKGQPREPQVCTLPPSRDELTKNQVSLWCLVKGFYPSDIAVEWESNGQPENNYKTTPPVLDSDGSFFLYSKLTVDKSRWQQGNVFSCSVMHEALHNRYTQKSLSLSP
0.17	GLS3000 Y96E one-arm antibody (antibody, human IgG1, kappa, L234A L235A, N297A, name in Kabat numbering) light: DIVMTQSPLSLPVTPGEPASISCRSSQSLVHSNRNTYLHWYQQKPGQAPRLLIYKVSNRFSGVPDRFSGSGSGTDFTLKISRVEAEDVGVYYCGQGTQVPETFGQGTKLEIKRTVAAPSVFIFPPSDEQLKSGTASVVCLLNNFYPREAKVQWKVDNALQSGNSQESVTEQDSKDSTYSLSSTLTLSKADYEKHKVYACEVTHQGLSSPVTKSFNRGEC heavy: QVQLVESGGGVVQPGRSLRLSCAASGFTFSNAWMHWVRQAPGKGLEWVAQIKAKSNNYATYYAESVKGRFTISRDDSKNSLYLQMNSLKTEDTAVYYCRYVHYGAYYGVDAWGQGTTVTVSSASTKGPSVFPLAPSSKSTSGGTAALGCLVKDYFPEPVTVSWNSGALTSGVHTFPAVLQSSGLYSLSSVVTVPSSSLGTQTYICNVNHKPSNTKVDKKVEPKSCDKTHTCPPCPAPEAAGGPSVFLFPPKPKDTLMISRTPEVTCVVVDVSHEDPEVKFNWYVDGVEVHNAKTKPREEQYASTYRVVSVLTVLHQDWLNGKEYKCKVSNKALPAPIEKTISKAKGQPREPQVYTLPPSRCELTKNQVSLSCAVKGFYPSDIAVEWESNGQPENNYKTTPPVLDSDGSFFLVSKLTVDKSRWQQGNVFSCSVMHEALHNHYTQKSLSLSPDYKDDDDK EPKSSDKTHTCPPCPAPELLGGPSVFLFPPKPKDTLMISRTPEVTCVVVDVSHEDPEVKFNWYVDGVEVHNAKTKPREEQYNSTYRVVSVLTVLHQDWLNGKEYKCKVSNKALPAPIEKTISKAKGQPREPQVCTLPPSRDELTKNQVSLWCLVKGFYPSDIAVEWESNGQPENNYKTTPPVLDSDGSFFLYSKLTVDKSRWQQGNVFSCSVMHEALHNRYTQKSLSLSP
